For 23 molecules, binding signal results are on record in publication PMC6555819, “Comprehensive study of nuclear receptor DNA binding provides a revised framework for understanding receptor specificity”.

Data set [1] has as its target RXRa (Homo sapiens, UniProt P19793). Description: no ligand; PBM; 180 nM; PBS pH 7.4, 2% milk, 0.02% Triton X-100, 1 mM DTT, BSA, 0.4 mg/ml salmon testes DNA. As to conditions: tags: His cleaved; chain copies: 2; label: surface-attached array probe.
The target in data set [2] is VDR:RXRa (Homo sapiens, UniProt P11473;P19793 full;full). Description: no ligand; PBM; 270 nM : 90 nM RXRa; PBS pH 7.4, 2% milk, 0.02% Triton X-100, 1 mM DTT, BSA, 0.4 mg/ml salmon testes DNA. As to conditions: tags: His kept;His cleaved; copies: 1;1; label: surface-attached array probe. The method, boiled down:
(§1)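 Scanned fluorescence from custom Agilent 4×180K protein-binding microarrays was regression-normalized. Binding z-scores use random background probes as reference. Ligand-free nuclear receptor dimers were incubated on the arrays for 1 h and detected with antibodies against each partner (one per run).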

Data set [3] deals with FXR:RXRa (Homo sapiens, UniProt Q96RI1;P19793 full;full). Described as above. The note with it: tags: His kept;His cleaved; copies: 1;1; label: surface-attached array probe. An outline of the steps:
as §1

Data set [4] has as its target LXRb:RXRa (Homo sapiens, UniProt P55055;P19793 full;full). The data set is described as above. As to conditions: tags: His kept;His cleaved; copies: 1;1; label: surface-attached array probe. An outline of the steps:
as §1

For data set [5], the target named is RARg:RXRa (Homo sapiens, UniProt P13631;P19793 full;full). The description is as above. The note with it: tags: His kept;His cleaved; copies: 1;1; label: surface-attached array probe. The method, boiled down: as §1
RARg:RXRa, sequence (P13631 whole entry, chain 1 of 2): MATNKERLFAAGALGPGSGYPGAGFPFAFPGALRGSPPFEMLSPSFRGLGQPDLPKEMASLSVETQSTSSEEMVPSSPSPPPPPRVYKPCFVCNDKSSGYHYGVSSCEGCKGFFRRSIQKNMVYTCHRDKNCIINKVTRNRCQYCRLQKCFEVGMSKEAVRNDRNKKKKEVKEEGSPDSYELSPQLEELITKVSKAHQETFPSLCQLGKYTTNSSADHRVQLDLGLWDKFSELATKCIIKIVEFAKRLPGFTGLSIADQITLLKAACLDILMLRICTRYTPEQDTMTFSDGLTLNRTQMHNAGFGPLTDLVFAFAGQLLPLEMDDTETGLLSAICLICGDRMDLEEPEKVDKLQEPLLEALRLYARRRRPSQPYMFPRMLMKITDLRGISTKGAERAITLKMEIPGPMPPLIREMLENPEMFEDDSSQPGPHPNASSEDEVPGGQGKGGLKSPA
RARg:RXRa, sequence (P19793 whole entry, chain 2 of 2): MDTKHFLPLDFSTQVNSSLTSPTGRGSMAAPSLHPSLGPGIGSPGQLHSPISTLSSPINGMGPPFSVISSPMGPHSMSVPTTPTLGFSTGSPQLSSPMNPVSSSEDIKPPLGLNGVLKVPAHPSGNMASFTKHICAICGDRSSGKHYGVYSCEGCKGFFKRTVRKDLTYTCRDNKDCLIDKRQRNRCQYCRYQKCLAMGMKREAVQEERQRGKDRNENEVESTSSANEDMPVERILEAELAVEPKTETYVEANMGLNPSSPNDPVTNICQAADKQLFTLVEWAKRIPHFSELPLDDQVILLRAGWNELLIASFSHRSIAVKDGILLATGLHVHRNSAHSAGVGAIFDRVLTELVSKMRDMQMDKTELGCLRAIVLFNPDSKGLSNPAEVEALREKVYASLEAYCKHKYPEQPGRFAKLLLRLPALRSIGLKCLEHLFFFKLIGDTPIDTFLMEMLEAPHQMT
For data set [6], the target named is RARb:RXRa (Homo sapiens, UniProt P10826;P19793 full;full). The data set is described as above. The note with it: tags: His kept;His cleaved; copies: 1;1; label: surface-attached array probe. The method, boiled down: as §1
RARb:RXRa, sequence (P10826 whole entry, chain 1 of 2): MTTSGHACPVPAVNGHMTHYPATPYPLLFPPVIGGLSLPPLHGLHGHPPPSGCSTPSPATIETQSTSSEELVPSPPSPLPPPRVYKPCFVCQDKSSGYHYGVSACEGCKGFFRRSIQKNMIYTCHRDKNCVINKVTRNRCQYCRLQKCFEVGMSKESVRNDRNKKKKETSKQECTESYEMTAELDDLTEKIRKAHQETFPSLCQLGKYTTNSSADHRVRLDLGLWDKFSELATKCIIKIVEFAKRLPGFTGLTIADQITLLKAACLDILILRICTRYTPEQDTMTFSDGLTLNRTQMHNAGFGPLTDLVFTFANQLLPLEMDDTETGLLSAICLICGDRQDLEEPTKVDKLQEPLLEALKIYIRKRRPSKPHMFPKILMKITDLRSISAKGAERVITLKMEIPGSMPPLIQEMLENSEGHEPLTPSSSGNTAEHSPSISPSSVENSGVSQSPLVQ
RARb:RXRa, sequence (P19793 whole entry, chain 2 of 2): as the sequence (P19793 whole entry, chain 2 of 2) above
The target of data set [7] is PPARa:RXRa (Homo sapiens, UniProt Q07869;P19793 full;full). The data set is described as above. The note with it: tags: GST kept;His cleaved; copies: 1;1; label: surface-attached array probe. An outline of the steps:
as §1

LXRb:RXRa, sequence (P55055 whole entry, chain 1 of 2): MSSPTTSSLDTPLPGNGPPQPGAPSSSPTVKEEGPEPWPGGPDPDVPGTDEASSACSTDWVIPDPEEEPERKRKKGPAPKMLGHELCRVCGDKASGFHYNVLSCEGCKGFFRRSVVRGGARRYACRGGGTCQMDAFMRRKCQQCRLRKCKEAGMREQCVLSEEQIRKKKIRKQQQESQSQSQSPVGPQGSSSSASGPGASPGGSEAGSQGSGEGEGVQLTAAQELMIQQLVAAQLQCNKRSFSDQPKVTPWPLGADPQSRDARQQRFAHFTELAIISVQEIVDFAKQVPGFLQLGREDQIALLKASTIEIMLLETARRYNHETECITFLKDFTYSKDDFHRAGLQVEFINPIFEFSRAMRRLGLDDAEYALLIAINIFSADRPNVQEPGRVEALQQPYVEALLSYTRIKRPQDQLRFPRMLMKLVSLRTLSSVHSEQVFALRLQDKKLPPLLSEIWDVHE
LXRb:RXRa, sequence (P19793 whole entry, chain 2 of 2): as the sequence (P19793 whole entry, chain 2 of 2) above
RXRa, sequence (P19793 whole entry): as the sequence (P19793 whole entry, chain 2 of 2) above
VDR:RXRa, sequence (P11473 whole entry, chain 1 of 2): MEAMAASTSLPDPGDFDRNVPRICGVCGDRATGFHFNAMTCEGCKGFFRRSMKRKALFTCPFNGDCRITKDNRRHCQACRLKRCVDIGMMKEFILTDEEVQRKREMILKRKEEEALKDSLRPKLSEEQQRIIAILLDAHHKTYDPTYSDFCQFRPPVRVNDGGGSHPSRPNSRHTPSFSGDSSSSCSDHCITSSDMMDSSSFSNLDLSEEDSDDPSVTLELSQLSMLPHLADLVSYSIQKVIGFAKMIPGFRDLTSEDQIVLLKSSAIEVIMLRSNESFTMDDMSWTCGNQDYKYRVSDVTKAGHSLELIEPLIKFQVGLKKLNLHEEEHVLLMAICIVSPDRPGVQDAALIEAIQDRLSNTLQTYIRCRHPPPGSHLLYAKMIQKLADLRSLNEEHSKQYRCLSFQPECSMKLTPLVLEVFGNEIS
VDR:RXRa, sequence (P19793 whole entry, chain 2 of 2): as the sequence (P19793 whole entry, chain 2 of 2) above
FXR:RXRa, sequence (Q96RI1 whole entry, chain 1 of 2): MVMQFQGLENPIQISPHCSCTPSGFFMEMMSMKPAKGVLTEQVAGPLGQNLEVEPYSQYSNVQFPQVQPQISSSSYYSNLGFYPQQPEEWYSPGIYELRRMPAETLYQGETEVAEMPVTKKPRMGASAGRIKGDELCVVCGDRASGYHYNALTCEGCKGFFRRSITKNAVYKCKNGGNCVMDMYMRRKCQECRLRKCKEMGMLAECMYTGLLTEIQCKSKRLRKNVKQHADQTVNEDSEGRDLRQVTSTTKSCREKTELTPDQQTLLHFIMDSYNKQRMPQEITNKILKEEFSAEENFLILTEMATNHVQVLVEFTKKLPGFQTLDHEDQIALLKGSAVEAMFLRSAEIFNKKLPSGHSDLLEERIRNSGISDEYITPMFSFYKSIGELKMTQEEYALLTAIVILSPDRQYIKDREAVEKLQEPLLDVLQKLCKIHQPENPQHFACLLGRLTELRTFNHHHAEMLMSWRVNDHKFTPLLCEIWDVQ
FXR:RXRa, sequence (P19793 whole entry, chain 2 of 2): as the sequence (P19793 whole entry, chain 2 of 2) above
PPARa:RXRa, sequence (Q07869 whole entry, chain 1 of 2): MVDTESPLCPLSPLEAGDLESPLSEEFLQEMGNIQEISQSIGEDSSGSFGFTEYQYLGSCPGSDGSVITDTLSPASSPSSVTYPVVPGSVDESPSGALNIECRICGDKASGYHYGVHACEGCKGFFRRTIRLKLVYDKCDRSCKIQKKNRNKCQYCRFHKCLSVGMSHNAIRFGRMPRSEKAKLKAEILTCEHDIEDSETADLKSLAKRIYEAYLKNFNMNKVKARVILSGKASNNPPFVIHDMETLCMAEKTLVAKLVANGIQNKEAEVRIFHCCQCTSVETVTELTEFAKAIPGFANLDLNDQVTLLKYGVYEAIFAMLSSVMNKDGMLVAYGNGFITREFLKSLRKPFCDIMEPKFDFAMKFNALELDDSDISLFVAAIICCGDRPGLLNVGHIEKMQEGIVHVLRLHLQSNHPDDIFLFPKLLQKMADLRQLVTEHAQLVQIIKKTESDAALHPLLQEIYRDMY
PPARa:RXRa, sequence (P19793 whole entry, chain 2 of 2): as the sequence (P19793 whole entry, chain 2 of 2) above

B1: NRC3_random_hg19_209_o1 (dsDNA)
DNA 1: GCGAGTTTCCAGCAGATGGCCATCACAACAATACTGGCGATTGACAGCGTAGAATGAAGG
DNA 2: CCTTCATTCTACGCTGTCAATCGCCAGTATTGTTGTGATGGCCATCTGCTGGAAACTCGC
Take B1: the binding signal was -0.14 PBM z-score against 500 random probes in data set [1], -0.22 PBM z-score against 500 random probes in data set [2] and -0.37 PBM z-score against 500 random probes in data set [3].

B2: NRC3_wobSeed89_DR3_A15G_o1 (dsDNA)
DNA 1: GCCTATGTAGGTTAGGGGGGTCATTCAGTTTGAAAGGCGATTGACAGCGTAGAATGAAGG
DNA 2: CCTTCATTCTACGCTGTCAATCGCCTTTCAAACTGAATGACCCCCCTAACCTACATAGGC
Turning to B2, the binding signal in data set [4] is 7.36 PBM z-score against 500 random probes.

B3: NRC3_wobSeed89_DR3_A15C_o1 (dsDNA)
DNA 1: GCCTATGTAGGTTACGGGGGTCATTCAGTTTGAAAGGCGATTGACAGCGTAGAATGAAGG
DNA 2: CCTTCATTCTACGCTGTCAATCGCCTTTCAAACTGAATGACCCCCGTAACCTACATAGGC
As for B3, in data set [4], the binding signal was 6.78 PBM z-score against 500 random probes.

B4: NRC3_random_hg19_107_o1 (dsDNA)
DNA 1: GCCTCAGGCTGAGTTGTGGTAGTGTAATCATAGCTCGCGATTGACAGCGTAGAATGAAGG
DNA 2: CCTTCATTCTACGCTGTCAATCGCGAGCTATGATTACACTACCACAACTCAGCCTGAGGC
For B4, the binding signal is -0.64 PBM z-score against 500 random probes in data set [2] and -0.79 PBM z-score against 500 random probes in data set [5].

B5: NRC3_random_hg19_171_o1 (dsDNA)
DNA 1: GCGGGCTACTGCCTAGGGTGCCTTGGCACAGCCAGCGCGATTGACAGCGTAGAATGAAGG
DNA 2: CCTTCATTCTACGCTGTCAATCGCGCTGGCTGTGCCAAGGCACCCTAGGCAGTAGCCCGC
Regarding B5, the binding signal in data set [1] was -0.92 PBM z-score against 500 random probes; in data set [2], -0.96 PBM z-score against 500 random probes; in data set [6] it was -0.98 PBM z-score against 500 random probes; in data set [3], -2.74 PBM z-score against 500 random probes.

B6: NRC3_random_hg19_132_o1 (dsDNA)
DNA 1: GCCAATGCCAGCTACCAGGAGGCTGAGGTGTGAGAGGCGATTGACAGCGTAGAATGAAGG
DNA 2: CCTTCATTCTACGCTGTCAATCGCCTCTCACACCTCAGCCTCCTGGTAGCTGGCATTGGC
Regarding B6, the binding signal in data set [2] was -0.75 PBM z-score against 500 random probes; in data set [5], -0.61 PBM z-score against 500 random probes.

B7: NRC3_wobSeed120_DR4_G7A_o1 (dsDNA)
DNA 1: GCCCGAATAGGTTACGAGGGGGCATTCAGTGCGAATGCGATTGACAGCGTAGAATGAAGG
DNA 2: CCTTCATTCTACGCTGTCAATCGCATTCGCACTGAATGCCCCCTCGTAACCTATTCGGGC
Consider B7, for which the binding signal in data set [4] was 7.24 PBM z-score against 500 random probes.

B8: NRC3_random_hg19_381_o1 (dsDNA)
DNA 1: GCCATGAGCGTGGAATGTTCTTCCATTTGTTCATATGCGATTGACAGCGTAGAATGAAGG
DNA 2: CCTTCATTCTACGCTGTCAATCGCATATGAACAAATGGAAGAACATTCCACGCTCATGGC
As for B8, the binding signal in data set [2] is -0.43 PBM z-score against 500 random probes; in data set [6], -0.87 PBM z-score against 500 random probes; in data set [3], -0.07 PBM z-score against 500 random probes; in data set [5], -0.62 PBM z-score against 500 random probes.

B9: NRC3_random_hg19_309_o1 (dsDNA)
DNA 1: GCCTTAGCTGGGATCTTATCTGTACAGTATCTGGGAGCGATTGACAGCGTAGAATGAAGG
DNA 2: CCTTCATTCTACGCTGTCAATCGCTCCCAGATACTGTACAGATAAGATCCCAGCTAAGGC
With B9, the binding signal in data set [1] is -0.37 PBM z-score against 500 random probes; in data set [2], -0.57 PBM z-score against 500 random probes; in data set [6], -0.66 PBM z-score against 500 random probes; in data set [5], -0.47 PBM z-score against 500 random probes.

B10: NRC3_random_hg19_27_o1 (dsDNA)
DNA 1: GCTCCCTGCCCAGTTCTGTGCAGGGTGTGCGTGTCTGCGATTGACAGCGTAGAATGAAGG
DNA 2: CCTTCATTCTACGCTGTCAATCGCAGACACGCACACCCTGCACAGAACTGGGCAGGGAGC
In the case of B10, the binding signal was -0.37 PBM z-score against 500 random probes in data set [2], -0.46 PBM z-score against 500 random probes in data set [6] and -0.32 PBM z-score against 500 random probes in data set [3].

B11: NRC3_random_hg19_130_o1 (dsDNA)
DNA 1: GCGAGATCAAGACCATCCTGGCTAACATGGTGAAACGCGATTGACAGCGTAGAATGAAGG
DNA 2: CCTTCATTCTACGCTGTCAATCGCGTTTCACCATGTTAGCCAGGATGGTCTTGATCTCGC
As for B11, the figures for the binding signal in data set [1] and in data set [2] were -0.18 PBM z-score against 500 random probes and -0.35 PBM z-score against 500 random probes, respectively.

B12: NRC3_random_hg19_55_o1 (dsDNA)
DNA 1: GCTTGAACGCCTGCTTTGTGCTGATGCAGATCCAGAGCGATTGACAGCGTAGAATGAAGG
DNA 2: CCTTCATTCTACGCTGTCAATCGCTCTGGATCTGCATCAGCACAAAGCAGGCGTTCAAGC
For the molecule B12, the binding signal in data set [2] was -0.59 PBM z-score against 500 random probes; in data set [3] it was -0.23 PBM z-score against 500 random probes.

B13: NRC3_random_hg19_358_o1 (dsDNA)
DNA 1: GCCTAGCAGCAACCAACCACAATGGCAAGGATGTAGGCGATTGACAGCGTAGAATGAAGG
DNA 2: CCTTCATTCTACGCTGTCAATCGCCTACATCCTTGCCATTGTGGTTGGTTGCTGCTAGGC
Take B13: the results for the binding signal in data set [2] and in data set [5] were -0.81 PBM z-score against 500 random probes and -0.41 PBM z-score against 500 random probes, respectively.

B14: NRC3_wobSeed50_DR2_T20C_o1 (dsDNA)
DNA 1: GCCCTAGTTGGTCAGGAGGCCACACACCGGATATGAGCGATTGACAGCGTAGAATGAAGG
DNA 2: CCTTCATTCTACGCTGTCAATCGCTCATATCCGGTGTGTGGCCTCCTGACCAACTAGGGC
On to B14, for which the values for the binding signal in data set [1] and in data set [2] were 0.4 PBM z-score against 500 random probes and 0.33 PBM z-score against 500 random probes, respectively.

B15: NRC3_random_hg19_418_o1 (dsDNA)
DNA 1: GCTGTGAGCATCACTTCTTGTTGGTCAGAGTAAGAGGCGATTGACAGCGTAGAATGAAGG
DNA 2: CCTTCATTCTACGCTGTCAATCGCCTCTTACTCTGACCAACAAGAAGTGATGCTCACAGC
For B15, the binding signal is -0.69 PBM z-score against 500 random probes in data set [2] and -0.39 PBM z-score against 500 random probes in data set [6].

B16: NRC3_random_hg19_426_o1 (dsDNA)
DNA 1: GCTGGAATCCTAGTGCTTTGGGAGGCTGAGGCTGGAGCGATTGACAGCGTAGAATGAAGG
DNA 2: CCTTCATTCTACGCTGTCAATCGCTCCAGCCTCAGCCTCCCAAAGCACTAGGATTCCAGC
On to B16, for which the results for the binding signal in data set [2] and in data set [7] were -0.9 PBM z-score against 500 random probes and -0.97 PBM z-score against 500 random probes, respectively.

B17: NRC3_wobSeed124_DR5_o1 (dsDNA)
DNA 1: GCCCTACTGGGCCATTCAGAGGTCATTGATCATATGGCGATTGACAGCGTAGAATGAAGG
DNA 2: CCTTCATTCTACGCTGTCAATCGCCATATGATCAATGACCTCTGAATGGCCCAGTAGGGC
With B17, the figures for the binding signal in data set [2] and in data set [6] were 3.94 PBM z-score against 500 random probes and 3.04 PBM z-score against 500 random probes, respectively.

B18: NRC3_wobSeed123_DR5_G26A_o1 (dsDNA)
DNA 1: GCCCTCGGAGGACAACAGGAGGTCAAAGCTGCCAGAGCGATTGACAGCGTAGAATGAAGG
DNA 2: CCTTCATTCTACGCTGTCAATCGCTCTGGCAGCTTTGACCTCCTGTTGTCCTCCGAGGGC
For the molecule B18, the binding signal in data set [2] was 3.35 PBM z-score against 500 random probes; in data set [5], 4.36 PBM z-score against 500 random probes.

B19: NRC3_random_hg19_190_o1 (dsDNA)
DNA 1: GCGCCTCAATTCTAACTTGATTGCTTCCCTAGAGGCGCGATTGACAGCGTAGAATGAAGG
DNA 2: CCTTCATTCTACGCTGTCAATCGCGCCTCTAGGGAAGCAATCAAGTTAGAATTGAGGCGC
With B19, the binding signal is 0.11 PBM z-score against 500 random probes in data set [2] and 0.46 PBM z-score against 500 random probes in data set [3].

B20: NRC3_random_hg19_54_o1 (dsDNA)
DNA 1: GCAGGTAATGTATTCACAGGTTCTGGGACGTCATTGGCGATTGACAGCGTAGAATGAAGG
DNA 2: CCTTCATTCTACGCTGTCAATCGCCAATGACGTCCCAGAACCTGTGAATACATTACCTGC
In the case of B20, the binding signal in data set [1] was -0.06 PBM z-score against 500 random probes; in data set [2] it was -0.18 PBM z-score against 500 random probes; in data set [5], -0.18 PBM z-score against 500 random probes.

B21: NRC3_wobSeed25_DR1_A5C_o1 (dsDNA)
DNA 1: GCCACACTAGGTCAAAGGTCAAAGTCGAGCCAACCAGCGATTGACAGCGTAGAATGAAGG
DNA 2: CCTTCATTCTACGCTGTCAATCGCTGGTTGGCTCGACTTTGACCTTTGACCTAGTGTGGC
Consider B21, for which, in data set [4], the binding signal is 7.56 PBM z-score against 500 random probes.

B22: NRC3_random_hg19_108_o1 (dsDNA)
DNA 1: GCTAGGAATGTGAGTTTCTCTAAGTTCTATTCCTGGGCGATTGACAGCGTAGAATGAAGG
DNA 2: CCTTCATTCTACGCTGTCAATCGCCCAGGAATAGAACTTAGAGAAACTCACATTCCTAGC
For B22, the figures for the binding signal in data set [2] and in data set [5] were 0.17 PBM z-score against 500 random probes and 0.22 PBM z-score against 500 random probes, respectively.

B23: NRC3_wobSeed77_DR3_C8A_o1 (dsDNA)
DNA 1: GCACTTAAGGGTCAACGAGGTTATAGCACGCGTATAGCGATTGACAGCGTAGAATGAAGG
DNA 2: CCTTCATTCTACGCTGTCAATCGCTATACGCGTGCTATAACCTCGTTGACCCTTAAGTGC
Take B23: the binding signal in data set [2] is 8.17 PBM z-score against 500 random probes; in data set [3], 7.94 PBM z-score against 500 random probes.
